Measured values published in patent US20080152663A1.

Biological target: B61/B51 (on B61/B51-matched allogeneic LCL)
Assay: cell-based or functional assay

B1: hepsin peptide 48-84 (residues 48-84 of hepsin) (peptide)
peptide: QEPLYPVQVSSADARLMVFDKTEGTWRLLCSSRSNAR
  Percent cell killing; B61/B51-matched allogeneic LCL + peptide; CD8+ T cells of donor: 27.1%
